In patent US20240043533A1 (NGM BIOPHARMACEUTICALS, published 2024):
Blank lines part the entries; values can stand above or below the binder they belong to.

How the values were obtained:
[1] = target: ILT3 extracellular domain chimeric receptor on NFAT-GFP reporter cells (human); assay: cell-based or functional assay
[2] = target: human ILT3 expressed on myeloid cells (THP-1 cells, primary dendritic cells, macrophages) (human, UniProt Q8NHJ6 22-448); assay: cell-based or functional assay
[3] = target: T1, Cyno LILRB5 (Macaca fascicularis, UniProt A0A2K5VIP6); assay: FACS on cells expressing cyno LILRB5, labeled anti-mouse Fc secondary antibody
T1 construct: expressed on the cell surface; also called cynomolgus LILRB5
T1 sequence (A0A2K5VIP6 entry or part of it): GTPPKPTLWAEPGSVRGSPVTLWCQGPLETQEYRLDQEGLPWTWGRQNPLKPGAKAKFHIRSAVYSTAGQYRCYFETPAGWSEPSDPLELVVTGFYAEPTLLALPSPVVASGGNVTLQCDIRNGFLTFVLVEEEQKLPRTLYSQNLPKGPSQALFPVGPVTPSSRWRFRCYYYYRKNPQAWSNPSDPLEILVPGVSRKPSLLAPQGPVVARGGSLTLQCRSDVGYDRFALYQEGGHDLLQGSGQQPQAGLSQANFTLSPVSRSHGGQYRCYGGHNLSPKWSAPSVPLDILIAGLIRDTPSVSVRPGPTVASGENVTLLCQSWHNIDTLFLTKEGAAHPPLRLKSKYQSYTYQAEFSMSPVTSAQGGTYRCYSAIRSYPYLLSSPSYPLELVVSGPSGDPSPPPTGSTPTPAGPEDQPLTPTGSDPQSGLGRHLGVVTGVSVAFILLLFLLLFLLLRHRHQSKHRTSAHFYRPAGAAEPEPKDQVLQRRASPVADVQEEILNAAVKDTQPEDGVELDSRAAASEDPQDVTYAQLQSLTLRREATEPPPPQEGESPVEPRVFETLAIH
Protocol: (§1) ELISA assays were used to screen antibodies against human ILT3 and human LILRA1,2,4-6. […] These antibodies were rescreened by FACS for binding to human ILT3 and cyno ILT3 expressed on HEK-293T cells. The antibodies that bound to both human and cyno ILT3 were selected. This subset of antibodies were screened by FACS against human LILRB1-5 (ILT2, ILT4, ILT5, ILT3, and LILRB5, respectively), cyno LILRB5, and human LILRA1,2,4-6. For FACS screening, each antibody was incubated with cells expressing human ILT3, cyno ILT3, one of the LILRA proteins, or one of the LILRB proteins for 30 minutes at 4° C. After washing, the cells were incubated with labeled anti-mouse Fc antibody for 30 minutes at 4° C. After washing, cells were analyzed on a flow cytometer. Antibodies were selected on the criteria of binding to human ILT3, cyno ILT3, no or limited binding to other LILRB proteins, and no or limited binding to LILRA proteins.

[4] = target: T2, human LILRB2 (human, UniProt Q8N423 22-597); assay: FACS on cells expressing human LILRB2, labeled anti-mouse Fc secondary antibody
T2 construct: whole, on cells; also called ILT4
T2 sequence (Q8N423 22-597): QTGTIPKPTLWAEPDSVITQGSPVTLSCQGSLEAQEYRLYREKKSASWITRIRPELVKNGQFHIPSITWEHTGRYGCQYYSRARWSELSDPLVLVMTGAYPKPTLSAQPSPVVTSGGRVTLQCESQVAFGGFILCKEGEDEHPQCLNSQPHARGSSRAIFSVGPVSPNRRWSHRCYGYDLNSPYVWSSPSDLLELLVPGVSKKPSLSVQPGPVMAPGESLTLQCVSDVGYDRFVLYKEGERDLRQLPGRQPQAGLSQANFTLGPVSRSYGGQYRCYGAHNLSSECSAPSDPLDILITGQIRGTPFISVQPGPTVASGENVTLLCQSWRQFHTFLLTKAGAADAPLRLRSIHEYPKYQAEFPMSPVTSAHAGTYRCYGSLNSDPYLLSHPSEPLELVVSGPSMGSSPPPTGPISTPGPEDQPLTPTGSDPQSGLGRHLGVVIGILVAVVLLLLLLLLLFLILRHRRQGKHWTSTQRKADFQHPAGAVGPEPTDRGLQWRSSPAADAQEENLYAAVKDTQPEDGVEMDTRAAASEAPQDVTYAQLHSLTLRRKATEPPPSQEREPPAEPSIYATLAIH
Protocol: as §1

[5] = target: T3, LILRB3 (human, UniProt O75022); assay: FACS on cells expressing human LILRB3, labeled anti-mouse Fc secondary antibody
T3 construct: expressed on the cell surface; also called human LILRB3; ILT5
T3 sequence (O75022 24-631 limits assumed): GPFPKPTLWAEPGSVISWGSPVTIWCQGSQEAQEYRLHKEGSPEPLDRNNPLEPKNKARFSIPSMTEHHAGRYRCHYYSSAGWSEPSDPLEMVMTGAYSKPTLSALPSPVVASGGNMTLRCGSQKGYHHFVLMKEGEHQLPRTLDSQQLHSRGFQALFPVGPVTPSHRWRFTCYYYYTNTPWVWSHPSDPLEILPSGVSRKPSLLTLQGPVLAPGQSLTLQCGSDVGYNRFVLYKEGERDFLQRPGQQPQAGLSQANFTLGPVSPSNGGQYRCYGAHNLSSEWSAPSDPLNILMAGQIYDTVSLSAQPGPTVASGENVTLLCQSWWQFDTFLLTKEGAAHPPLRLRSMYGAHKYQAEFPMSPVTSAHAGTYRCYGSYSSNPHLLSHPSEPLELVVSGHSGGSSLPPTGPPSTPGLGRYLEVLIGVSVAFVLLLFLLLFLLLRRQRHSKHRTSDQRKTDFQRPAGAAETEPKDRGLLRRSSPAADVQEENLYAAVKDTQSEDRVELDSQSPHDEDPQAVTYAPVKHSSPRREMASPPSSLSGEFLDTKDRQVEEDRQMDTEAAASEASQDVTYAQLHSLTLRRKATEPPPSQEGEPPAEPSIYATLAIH
Protocol: as §1

[6] = target: T4, LILRB5 (human, UniProt O75023); assay: FACS on cells expressing human LILRB5, labeled anti-mouse Fc secondary antibody
T4 construct: expressed on the cell surface; also called human LILRB5; CD85C
T4 sequence (O75023 24-590 limits assumed): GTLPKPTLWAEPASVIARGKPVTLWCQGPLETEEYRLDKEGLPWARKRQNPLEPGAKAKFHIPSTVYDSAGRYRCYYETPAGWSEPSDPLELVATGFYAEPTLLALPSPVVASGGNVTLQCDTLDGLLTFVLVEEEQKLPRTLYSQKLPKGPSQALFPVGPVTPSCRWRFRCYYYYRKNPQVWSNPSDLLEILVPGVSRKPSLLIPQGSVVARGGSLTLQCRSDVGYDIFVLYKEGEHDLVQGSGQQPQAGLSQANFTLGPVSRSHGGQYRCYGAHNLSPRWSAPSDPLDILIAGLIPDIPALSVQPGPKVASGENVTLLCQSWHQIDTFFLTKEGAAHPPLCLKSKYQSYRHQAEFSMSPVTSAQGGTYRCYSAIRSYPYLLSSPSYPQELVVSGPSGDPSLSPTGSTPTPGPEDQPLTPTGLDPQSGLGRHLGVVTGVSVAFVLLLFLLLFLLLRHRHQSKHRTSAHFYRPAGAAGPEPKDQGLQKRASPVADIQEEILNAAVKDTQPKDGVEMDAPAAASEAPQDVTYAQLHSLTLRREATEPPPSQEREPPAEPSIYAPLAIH
Protocol: as §1

[7] = target: T5, human LILRA1 (human, UniProt O75019 17-489); assay: FACS on cells expressing human LILRA1, labeled anti-mouse Fc secondary antibody
T5 construct: whole, on cells
T5 sequence (O75019 17-489): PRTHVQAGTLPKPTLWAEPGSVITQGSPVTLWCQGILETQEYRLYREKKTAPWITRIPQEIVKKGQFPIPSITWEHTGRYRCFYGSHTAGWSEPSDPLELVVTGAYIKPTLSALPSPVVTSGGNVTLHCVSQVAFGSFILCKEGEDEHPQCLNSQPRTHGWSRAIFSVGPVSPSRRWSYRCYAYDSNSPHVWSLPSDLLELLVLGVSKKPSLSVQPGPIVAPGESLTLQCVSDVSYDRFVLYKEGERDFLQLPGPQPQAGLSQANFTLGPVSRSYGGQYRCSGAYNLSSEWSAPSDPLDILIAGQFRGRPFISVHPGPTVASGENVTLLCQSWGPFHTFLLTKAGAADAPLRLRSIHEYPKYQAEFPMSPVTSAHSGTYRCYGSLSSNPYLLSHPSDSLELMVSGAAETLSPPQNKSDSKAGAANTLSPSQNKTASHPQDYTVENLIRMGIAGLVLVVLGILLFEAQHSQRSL
Protocol: as §1

[8] = target: T6, human LILRA2 (human, UniProt Q8N149 24-483); assay: FACS on cells expressing human LILRA2, labeled anti-mouse Fc secondary antibody
T6 construct: whole, on cells
T6 sequence (Q8N149 24-483): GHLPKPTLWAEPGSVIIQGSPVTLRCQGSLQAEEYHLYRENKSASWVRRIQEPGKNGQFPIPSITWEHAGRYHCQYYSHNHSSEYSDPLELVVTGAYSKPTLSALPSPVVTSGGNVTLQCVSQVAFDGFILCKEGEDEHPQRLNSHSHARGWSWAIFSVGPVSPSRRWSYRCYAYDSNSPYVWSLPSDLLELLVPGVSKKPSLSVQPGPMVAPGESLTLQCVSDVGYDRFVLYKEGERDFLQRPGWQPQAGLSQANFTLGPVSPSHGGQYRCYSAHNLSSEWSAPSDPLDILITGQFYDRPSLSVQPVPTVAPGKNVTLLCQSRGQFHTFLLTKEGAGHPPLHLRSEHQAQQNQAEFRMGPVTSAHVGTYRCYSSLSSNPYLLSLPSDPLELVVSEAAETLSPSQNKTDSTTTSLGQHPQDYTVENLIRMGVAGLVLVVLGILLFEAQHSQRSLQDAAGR
Protocol: as §1

[9] = target: T7, human LILRA4 (human, UniProt P59901 24-499); assay: FACS on cells expressing human LILRA4, labeled anti-mouse Fc secondary antibody
T7 construct: whole, on cells
T7 sequence (P59901 24-499): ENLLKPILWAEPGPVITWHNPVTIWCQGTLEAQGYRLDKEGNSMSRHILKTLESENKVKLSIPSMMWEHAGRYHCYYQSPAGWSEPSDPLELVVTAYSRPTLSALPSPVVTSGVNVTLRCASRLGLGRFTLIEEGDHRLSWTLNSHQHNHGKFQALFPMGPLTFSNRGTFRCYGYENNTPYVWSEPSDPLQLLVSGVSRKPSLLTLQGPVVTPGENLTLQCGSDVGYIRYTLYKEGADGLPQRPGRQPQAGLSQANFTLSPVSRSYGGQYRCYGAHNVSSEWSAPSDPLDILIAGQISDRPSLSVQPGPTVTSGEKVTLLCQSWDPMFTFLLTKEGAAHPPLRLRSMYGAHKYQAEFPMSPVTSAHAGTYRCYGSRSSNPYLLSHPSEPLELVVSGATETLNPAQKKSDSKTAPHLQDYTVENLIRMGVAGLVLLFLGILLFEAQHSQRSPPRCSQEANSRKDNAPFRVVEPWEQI
Protocol: as §1

[10] = target: T8, human LILRA5 (human, UniProt A6NI73 42-299); assay: FACS on cells expressing human LILRA5, labeled anti-mouse Fc secondary antibody
T8 construct: whole, on cells
T8 sequence (A6NI73 42-299): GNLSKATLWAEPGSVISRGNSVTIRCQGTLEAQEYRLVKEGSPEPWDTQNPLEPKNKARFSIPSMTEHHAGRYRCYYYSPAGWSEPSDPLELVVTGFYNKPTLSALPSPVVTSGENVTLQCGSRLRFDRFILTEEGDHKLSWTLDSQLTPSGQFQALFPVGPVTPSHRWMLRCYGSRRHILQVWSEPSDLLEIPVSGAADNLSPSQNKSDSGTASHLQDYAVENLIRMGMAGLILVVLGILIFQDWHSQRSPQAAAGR
Protocol: as §1

[11] = target: T9, human LILRA6 (human, UniProt Q6PI73 24-447, limits assumed); assay: FACS on cells expressing human LILRA6, labeled anti-mouse Fc secondary antibody
T9 construct: Read out of the printed 'LILRA1,2,4-6'
T9 sequence (Q6PI73 24-447 limits assumed): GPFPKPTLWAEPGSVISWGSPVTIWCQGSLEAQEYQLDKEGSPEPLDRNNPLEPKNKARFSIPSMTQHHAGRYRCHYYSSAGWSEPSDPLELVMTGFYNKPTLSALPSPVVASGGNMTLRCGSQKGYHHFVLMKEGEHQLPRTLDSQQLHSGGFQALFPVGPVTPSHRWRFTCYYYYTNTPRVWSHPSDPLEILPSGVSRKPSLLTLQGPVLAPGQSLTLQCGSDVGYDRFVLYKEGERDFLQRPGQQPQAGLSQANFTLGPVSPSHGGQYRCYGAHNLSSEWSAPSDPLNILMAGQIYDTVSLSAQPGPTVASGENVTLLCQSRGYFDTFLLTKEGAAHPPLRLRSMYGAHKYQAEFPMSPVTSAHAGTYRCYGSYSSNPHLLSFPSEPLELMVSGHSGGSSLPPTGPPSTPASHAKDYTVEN
Protocol: as §1

[12] = target: T10, extracellular domain of human ILT3 (huILT3-ECD) (human, UniProt Q8NHJ6 22-259); assay: SPR (Biacore), antibody captured via anti-Fc on CM5 chip, soluble ILT3-ECD injected, 37 C
T10 construct: also called human ILT3-ECD
Protocol: (§2) The binding affinities of anti-ILT3 antibodies to human ILT3 and cyno ILT3 were measured using a Biacore system (GE Healthcare LifeSciences). Briefly, anti-Fc antibody (Sigma-Aldrich) was immobilized on all four flow cells of a CM5 chip using amine coupling reagents (GE Healthcare LifeSciences). Antibodies were captured on flow cells 2, 3, and 4 using flow cell 1 as a reference. Concentrations ranging from 3.3-10 nM of human or cyno ILT3-ECD were injected at a flow rate of 50 μL/min at 37° C. Kinetic data were collected over time and fit using the simultaneous global fit equation to yield affinity constants (KD values) for each antibody.

[13] = target: T11, extracellular domain of cyno ILT3 (cynoILT3-ECD) (cynomolgus monkey); assay: as above
T11 chain: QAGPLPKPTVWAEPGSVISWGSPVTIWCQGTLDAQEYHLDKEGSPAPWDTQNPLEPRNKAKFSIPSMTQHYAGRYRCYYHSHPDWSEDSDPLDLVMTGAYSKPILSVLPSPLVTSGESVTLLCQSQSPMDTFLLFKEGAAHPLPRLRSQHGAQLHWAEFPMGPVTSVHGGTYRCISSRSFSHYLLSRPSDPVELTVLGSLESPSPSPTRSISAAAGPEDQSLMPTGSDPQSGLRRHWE
Protocol: as §2

[14] = target: T12, LILRB4; assay: FACS on cells expressing human LILRB4 (ILT3), labeled anti-mouse Fc secondary antibody
T12 construct: the construct expressed on the cells is not described further; also called human ILT3 expressed on cells for the FACS screen; ILT3
Protocol: as §1

[15] = target: T13, ILT3ECD-Fc (human ILT3 extracellular domain fused to an immunoglobulin Fc region) (human, UniProt Q8NHJ6 22-259); assay: blocking of the binding of ILT3-ECD-Fc (1 µg/mL) to endogenous fibronectin on Detroit 551 cells; imaging with polyclonal anti-ILT3 and AlexaFluor 647 secondary antibody
T13 construct: also called Human ILT3ECD-Fc; not shown: immunoglobulin Fc region
Protocol: FIG. 14. ILT3 binding to endogenously expressed fibronectin. Detroit 551 cells were plated onto poly-D-lysine-coated 384-well plates at 6×10³ cells/well and incubated for two days. Monolayers were rinsed with HBSS containing Mg²⁺ and Ca²⁺. ILT3-ECD-Fc was added to the wells in the presence of ant-ILT3 antibody 16C5, anti-ILT3 antibody ch5A7, or control anti-KLH antibody. The antibodies were serially diluted 3-fold in media containing the ILT3-ECD-Fc (range of 66 nM to 0.27 nM). Cells were incubated for 1 hr at room temperature and then washed three times with HBSS and fixed with 3.7% formalin for 10 min. Monolayers were rinsed with PBS and blocked with 1% BSA in PBS before staining with Hoechst stain and a commercially available polyclonal anti-ILT3 antibody. An AlexaFluor 647-conjugated rabbit anti-goat Fc secondary antibody was added, cells were imaged, and the level of fluorescence was quantified using a CellInsight imaging system.
The Detroit 551 cell line is composed of human skin fibroblasts established from normal fetal tissue. These cells have endogenously produced fibronectin bound to receptors on their surface. […] An AlexaFluor 647-conjugated rabbit anti-goat Fc secondary antibody (Jackson ImmunoResearch Labs) was added, cells were imaged, and the level of fluorescence was quantified using a Celllnsight imaging system.

[16] = target: T14, human plasma-derived fibronectin (Millipore) (human, UniProt P02751 32-2477); assay: SPR (Biacore), human plasma fibronectin amine-coupled on CM5 chip, ECD-Fc injected, 37 C
T14 construct: Bought protein; also called human plasma fibronectin; human fibronectin
Protocol: (§3) The binding of ILT3 to fibronectin was evaluated by Biacore. Human plasma fibronectin was immobilized onto a CM5 sensor chip surface (flow cell 2) using standard amine coupling chemistry. Collagen type IV was immobilized onto flow cell 3 and used as a control. Human ILT3ECD-Fc or human LAIR1ECD-Fc were injected over both surfaces at different concentrations (125-4000 nM) at a flow rate of 50 μL/min at 37° C. Kinetic data were collected over time and fit using the simultaneous global fit equation to yield affinity constants (KD values) for each antibody.

[17] = target: T15, collagen type IV; assay: SPR (Biacore), collagen type IV amine-coupled on CM5 chip, LAIR1ECD-Fc injected at 125-4000 nM, 37 C
T15 construct: Control surface in the Biacore experiment; also called collagen IV
Protocol: as §3

Sequence of ILT3 extracellular domain chimeric receptor on NFAT-GFP reporter cells (human) (Q8NHJ6 22-259, change not shown): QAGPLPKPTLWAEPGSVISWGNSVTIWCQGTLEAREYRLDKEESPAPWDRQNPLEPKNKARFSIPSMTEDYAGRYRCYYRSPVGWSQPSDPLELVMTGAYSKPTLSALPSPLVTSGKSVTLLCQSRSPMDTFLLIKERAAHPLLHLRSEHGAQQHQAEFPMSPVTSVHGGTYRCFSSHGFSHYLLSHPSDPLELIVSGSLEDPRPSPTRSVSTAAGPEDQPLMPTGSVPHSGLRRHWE

IC50 (read off the curve) [1]: ~200 pM
EC50 (read off the curve) [2]: ~2 nM
EC50 (read off the curve) [3]: ~900 pM
binding result [10]: binds
Kd [12]: 1.8 nM
koff [12]: 0.0002 s⁻¹
kon [12]: 110000 M⁻¹ s⁻¹
Kd [13]: 0.31 nM
koff [13]: 9e-05 s⁻¹
kon [13]: 290000 M⁻¹ s⁻¹
binding result [14]: binds
binding result [15]: binds
B1: anti-ILT3 antibody 16C5 (antibody, V domains shown)
VH: EVQLQQSGPELVKPGASVKISCKASGYTFTDYNMDWVKQSHGKSLEWIGYIYPSNGGTGYNQKFKSKATLTVDKSSNTAYMELHSLTSEDSAVYYCARVPYYDYLYYYAMDYWGQGTSVTVSS
VL: QIVLSQSPAILSASPGEKVTMACRASSSVSFMHWYQQKPGSSPQPWIYATSNLASGVPARFSGSGSGTSYSLTISRVEAEDAATYYCQQWSTNPYMYTFGGGTKLEIK
notes: Mouse monoclonal antibody from hybridoma
binding result [4]: no binding (tested: log [Ab] about -7.2 M (about 6e-8 M))
binding result [5]: no binding (tested: log [Ab] about -7.2 M (about 6e-8 M))
binding result [6]: no binding (tested: log [Ab] about -7.2 M (about 6e-8 M))
binding result [7]: no binding (tested: log [Ab] about -7.2 M (about 6e-8 M))
binding result [8]: no binding (tested: log [Ab] about -7.2 M (about 6e-8 M))
binding result [9]: no binding (tested: log [Ab] about -7.2 M (about 6e-8 M))
binding result [11]: no binding (tested: log [Ab] about -7.2 M (about 6e-8 M))

binding result [16]: no binding (tested: 125-4000 nM)
Kd [17]: ≥ 5 µM
B2: human LAIR1ECD-Fc (Fc fusion, UniProt Q6GTX8 22-165, looked up)
chain: QEEDLPRPSISAEPGTVIPLGSHVTFVCRGPVGVQTFRLERDSRSTYNDTEDVSQASPSESEARFRIDSVREGNAGLYRCIYYKPPKWSEQSDYLELLVKESSGGPDSPDTEPGSSAGPTQRPSDNSHNEHAPASQGLKAEHLY
notes: extracellular domain; not shown: Fc region
